From patent US20250163145A1 (SHIONOGI, published 2025)
Where no end group is shown, it is not given here.

T1: epitope peptide Cys-CE3C long (also: biotin label, site not given here)
T1 peptide: CSVNVDKQPKYEYSL


Target: T1, epitope peptide Cys-CE3C long
Assay: competitive ELISA, unlabeled vs biotin-labeled peptide, antibody on anti-human IgG plate
Experimental: A diluted solution of the obtained recombinant humanized antibody, a biotin-labeled immunogen peptide, and Streptavidin-HRP (manufactured by PIERCE) were added to an anti-human IgG antibody-immobilized plate, and reacted overnight at 4° C. […] Next, a recombinant human antibody at the dilution rate, a biotin-labeled immunogen peptide, and Streptavidin-HRP (manufactured by PIERCE) were added. At the same time, a dilution series of unlabeled immunogenic peptide was added and reacted overnight at 4° C. After washing twice with ELISA wash buffer, TMB-Substrate Chromogen (manufactured by Thermo Fisher Scientific) was added to develop color, the reaction was stopped with an equal amount of 0.5N sulfuric acid, and the absorbance at 450 nm was measured. The concentration of the unlabeled peptide which attenuated the signal of the biotin-labeled peptide by half was defined as the affinity (IC50).

| Binder | IC50 [nM] |
| --- | --- |
| humanized antibody h15H11 (IGHV7-4-1 Q43R, G44S, R94P / IGKV7-3 Y36F, V78M) (antibody, human IgG4 S228P, kappa, V domains shown, hIgG4Pro/hIgK; also called h15H11-WT; h15H11-wt) VH: QVQLVQSGSELKKPGASVKVSCKASGYTFTDYNMHWVRQAPGRSLEWMGRINPKNGVINSNEKFKDRFVFSLDTSVSTAYLQISSLKAEDTAVYYCAPSYYGGNTDAYWGQGTLVTVSS VL: DIVLTQSPASLAVSPGQRATITCRASESVDNYGISFMNWFQQKPGQPPKLLIYAASSQGSGVPARFSGSGSGTDFTLTINPMEANDTANYYCQQSKEFPWTFGGGTKVEIKR | 1.44 |
| h15H11-1 (antibody, human IgG4 S228P, kappa, V domains shown, hIgG4Pro/hIgK) VH: QVQLVQSGSELKKPGASVKVSCKASGYTFTEYNMHWVRQAPGRSLEWMGRINPKNGVILSNEKFKDRFVFSLDTSVSTAYLQISSLKAEDTAVYYCAPSYYGGDDDAYWGQGTLVTVSS VL: DIVLTQSPASLAVSPGQRATITCRASDSVDNYGISFLNWFQQKPGQPPKLLIYAASSQGSGVPARFSGSGSGTDFTLTINPMEANDTANYYCQQSKEFPWTFGGGTKVEIKR | 0.47 |
| h15H11-2 (antibody, human IgG4 S228P, kappa, V domains shown, hIgG4Pro/hIgK) VH: QVQLVQSGSELKKPGASVKVSCKASGYTFTDYNMHWVRQAPGRSLEWMGRINPKNGVILSNEKFKDRFVFSLDTSVSTAYLQISSLKAEDTAVYYCAPSYYGGDDDAYWGQGTLVTVSS VL: DIVLTQSPASLAVSPGQRATITCRASDSVDNYGISFLNWFQQKPGQPPKLLIYAASSQGSGVPARFSGSGSGTDFTLTINPMEANDTANYYCQQSKEFPWTFGGGTKVEIKR | 0.48 |
| h15H11-3 (antibody, human IgG4 S228P, kappa, V domains shown, hIgG4Pro/hIgK) VH: QVQLVQSGSELKKPGASVKVSCKASGYTFTEYNMHWVRQAPGRSLEWMGRINPKNGVILSNEKFKDRFVFSLDTSVSTAYLQISSLKAEDTAVYYCAPSYYGGDDDAYWGQGTLVTVSS VL: DIVLTQSPASLAVSPGQRATITCRASESVDNYGISFMNWFQQKPGQPPKLLIYAASSQGSGVPARFSGSGSGTDFTLTINPMEANDTANYYCQQSKEFPWTFGGGTKVEIKR | 0.5 |
| h15H11-4 (antibody, human IgG4 S228P, kappa, V domains shown, hIgG4Pro/hIgK) VH: QVQLVQSGSELKKPGASVKVSCKASGYTFTDYNMHWVRQAPGRSLEWMGRINPKNGVILSNEKFKDRFVFSLDTSVSTAYLQISSLKAEDTAVYYCAPSYYGGDDDAYWGQGTLVTVSS VL: DIVLTQSPASLAVSPGQRATITCRASESVDNYGISFMNWFQQKPGQPPKLLIYAASSQGSGVPARFSGSGSGTDFTLTINPMEANDTANYYCQQSKEFPWTFGGGTKVEIKR | 0.51 |
| h15H11-5 (antibody, human IgG4 S228P, kappa, V domains shown, hIgG4Pro/hIgK) VH: QVQLVQSGSELKKPGASVKVSCKASGYTFTEYNMHWVRQAPGRSLEWMGRINPKNGVILSNEKFKDRFVFSLDTSVSTAYLQISSLKAEDTAVYYCAPSYYGGDTDAYWGQGTLVTVSS VL: DIVLTQSPASLAVSPGQRATITCRASDSVDNYGISFLNWFQQKPGQPPKLLIYAASSQGSGVPARFSGSGSGTDFTLTINPMEANDTANYYCQQSKEFPWTFGGGTKVEIKR | 0.52 |
| h15H11-6 (antibody, human IgG4 S228P, kappa, V domains shown, hIgG4Pro/hIgK) VH: QVQLVQSGSELKKPGASVKVSCKASGYTFTDYNMHWVRQAPGRSLEWMGRINPKNGVINSNEKFKDRFVFSLDTSVSTAYLQISSLKAEDTAVYYCAPSYYGGDDDAYWGQGTLVTVSS VL: DIVLTQSPASLAVSPGQRATITCRASDSVDNYGISFLNWFQQKPGQPPKLLIYAASSQGSGVPARFSGSGSGTDFTLTINPMEANDTANYYCQQSKEFPWTFGGGTKVEIKR | 0.57 |
| h15H11-7 (antibody, human IgG4 S228P, kappa, V domains shown, hIgG4Pro/hIgK) VH: QVQLVQSGSELKKPGASVKVSCKASGYTFTEYNMHWVRQAPGRSLEWMGRINPKNGVILSNEKFKDRFVFSLDTSVSTAYLQISSLKAEDTAVYYCAPSYYGGNDDAYWGQGTLVTVSS VL: DIVLTQSPASLAVSPGQRATITCRASDSVDNYGISFLNWFQQKPGQPPKLLIYAASSQGSGVPARFSGSGSGTDFTLTINPMEANDTANYYCQQSKEFPWTFGGGTKVEIKR | 0.58 |
| h15H11-8 (antibody, human IgG4 S228P, kappa, V domains shown, hIgG4Pro/hIgK) VH: QVQLVQSGSELKKPGASVKVSCKASGYTFTDYNMHWVRQAPGRSLEWMGRINPKNGVILSNEKFKDRFVFSLDTSVSTAYLQISSLKAEDTAVYYCAPSYYGGNDDAYWGQGTLVTVSS VL: DIVLTQSPASLAVSPGQRATITCRASESVDNYGISFMNWFQQKPGQPPKLLIYAASSQGSGVPARFSGSGSGTDFTLTINPMEANDTANYYCQQSKEFPWTFGGGTKVEIKR | 0.6 |
| h15H11-9 (antibody, human IgG4 S228P, kappa, V domains shown, hIgG4Pro/hIgK) VH: QVQLVQSGSELKKPGASVKVSCKASGYTFTDYNMHWVRQAPGRSLEWMGRINPKNGVILSNEKFKDRFVFSLDTSVSTAYLQISSLKAEDTAVYYCAPSYYGGNDDAYWGQGTLVTVSS VL: DIVLTQSPASLAVSPGQRATITCRASDSVDNYGISFLNWFQQKPGQPPKLLIYAASSQGSGVPARFSGSGSGTDFTLTINPMEANDTANYYCQQSKEFPWTFGGGTKVEIKR | 0.61 |
| h15H11-10 (antibody, human IgG4 S228P, kappa, V domains shown, hIgG4Pro/hIgK) VH: QVQLVQSGSELKKPGASVKVSCKASGYTFTEYNMHWVRQAPGRSLEWMGRINPKNGVILSNEKFKDRFVFSLDTSVSTAYLQISSLKAEDTAVYYCAPSYYGGNDDAYWGQGTLVTVSS VL: DIVLTQSPASLAVSPGQRATITCRASESVDNYGISFMNWFQQKPGQPPKLLIYAASSQGSGVPARFSGSGSGTDFTLTINPMEANDTANYYCQQSKEFPWTFGGGTKVEIKR | 0.61 |
| h15H11-11 (antibody, human IgG4 S228P, kappa, V domains shown, hIgG4Pro/hIgK) VH: QVQLVQSGSELKKPGASVKVSCKASGYTFTDYNMHWVRQAPGRSLEWMGRINPKNGVILSNEKFKDRFVFSLDTSVSTAYLQISSLKAEDTAVYYCAPSYYGGDTDAYWGQGTLVTVSS VL: DIVLTQSPASLAVSPGQRATITCRASDSVDNYGISFLNWFQQKPGQPPKLLIYAASSQGSGVPARFSGSGSGTDFTLTINPMEANDTANYYCQQSKEFPWTFGGGTKVEIKR | 0.62 |
| h15H11-12 (antibody, human IgG4 S228P, kappa, V domains shown, hIgG4Pro/hIgK) VH: QVQLVQSGSELKKPGASVKVSCKASGYTFTEYNMHWVRQAPGRSLEWMGRINPKNGVILSNEKFKDRFVFSLDTSVSTAYLQISSLKAEDTAVYYCAPSYYGGDTDAYWGQGTLVTVSS VL: DIVLTQSPASLAVSPGQRATITCRASESVDNYGISFMNWFQQKPGQPPKLLIYAASSQGSGVPARFSGSGSGTDFTLTINPMEANDTANYYCQQSKEFPWTFGGGTKVEIKR | 0.62 |
| h15H11-13 (antibody, human IgG4 S228P, kappa, V domains shown, hIgG4Pro/hIgK) VH: QVQLVQSGSELKKPGASVKVSCKASGYTFTEYNMHWVRQAPGRSLEWMGRINPKNGVINSNEKFKDRFVFSLDTSVSTAYLQISSLKAEDTAVYYCAPSYYGGNDDAYWGQGTLVTVSS VL: DIVLTQSPASLAVSPGQRATITCRASDSVDNYGISFLNWFQQKPGQPPKLLIYAASSQGSGVPARFSGSGSGTDFTLTINPMEANDTANYYCQQSKEFPWTFGGGTKVEIKR | 0.64 |
| h15H11-14 (antibody, human IgG4 S228P, kappa, V domains shown, hIgG4Pro/hIgK) VH: QVQLVQSGSELKKPGASVKVSCKASGYTFTDYNMHWVRQAPGRSLEWMGRINPKNGVINSNEKFKDRFVFSLDTSVSTAYLQISSLKAEDTAVYYCAPSYYGGDDDAYWGQGTLVTVSS VL: DIVLTQSPASLAVSPGQRATITCRASESVDNYGISFMNWFQQKPGQPPKLLIYAASSQGSGVPARFSGSGSGTDFTLTINPMEANDTANYYCQQSKEFPWTFGGGTKVEIKR | 0.66 |
| h15H11-15 (antibody, human IgG4 S228P, kappa, V domains shown, hIgG4Pro/hIgK) VH: QVQLVQSGSELKKPGASVKVSCKASGYTFTDYNMHWVRQAPGRSLEWMGRINPKNGVILSNEKFKDRFVFSLDTSVSTAYLQISSLKAEDTAVYYCAPSYYGGDTDAYWGQGTLVTVSS VL: DIVLTQSPASLAVSPGQRATITCRASESVDNYGISFMNWFQQKPGQPPKLLIYAASSQGSGVPARFSGSGSGTDFTLTINPMEANDTANYYCQQSKEFPWTFGGGTKVEIKR | 0.66 |
| h15H11-16 (antibody, human IgG4 S228P, kappa, V domains shown, hIgG4Pro/hIgK) VH: QVQLVQSGSELKKPGASVKVSCKASGYTFTEYNMHWVRQAPGRSLEWMGRINPKNGVINSNEKFKDRFVFSLDTSVSTAYLQISSLKAEDTAVYYCAPSYYGGNDDAYWGQGTLVTVSS VL: DIVLTQSPASLAVSPGQRATITCRASESVDNYGISFMNWFQQKPGQPPKLLIYAASSQGSGVPARFSGSGSGTDFTLTINPMEANDTANYYCQQSKEFPWTFGGGTKVEIKR | 0.68 |
| h15H11-17 (antibody, human IgG4 S228P, kappa, V domains shown, hIgG4Pro/hIgK) VH: QVQLVQSGSELKKPGASVKVSCKASGYTFTDYNMHWVRQAPGRSLEWMGRINPKNGVINSNEKFKDRFVFSLDTSVSTAYLQISSLKAEDTAVYYCAPSYYGGNDDAYWGQGTLVTVSS VL: DIVLTQSPASLAVSPGQRATITCRASDSVDNYGISFLNWFQQKPGQPPKLLIYAASSQGSGVPARFSGSGSGTDFTLTINPMEANDTANYYCQQSKEFPWTFGGGTKVEIKR | 0.7 |
| h15H11-18 (antibody, human IgG4 S228P, kappa, V domains shown, hIgG4Pro/hIgK) VH: QVQLVQSGSELKKPGASVKVSCKASGYTFTDYNMHWVRQAPGRSLEWMGRINPKNGVINSNEKFKDRFVFSLDTSVSTAYLQISSLKAEDTAVYYCAPSYYGGNDDAYWGQGTLVTVSS VL: DIVLTQSPASLAVSPGQRATITCRVSDSVDNYGISFLNWFQQKPGQPPKLLIYAASSQGSGVPARFSGSGSGTDFTLTINPMEANDTANYYCQQSKEFPWTFGGGTKVEIKR | 0.74 |
| h15H11-19 (antibody, human IgG4 S228P, kappa, V domains shown, hIgG4Pro/hIgK) VH: QVQLVQSGSELKKPGASVKVSCKASGYTFTEYNMHWVRQAPGRSLEWMGRINPKNGVINSNEKFKDRFVFSLDTSVSTAYLQISSLKAEDTAVYYCAPSYYGGDTDAYWGQGTLVTVSS VL: DIVLTQSPASLAVSPGQRATITCRASDSVDNYGISFLNWFQQKPGQPPKLLIYAASSQGSGVPARFSGSGSGTDFTLTINPMEANDTANYYCQQSKEFPWTFGGGTKVEIKR | 0.74 |
| h15H11-20 (antibody, human IgG4 S228P, kappa, V domains shown, hIgG4Pro/hIgK) VH: QVQLVQSGSELKKPGASVKVSCKASGYTFTDYNMHWVRQAPGRSLEWMGRINPKNGVINSNEKFKDRFVFSLDTSVSTAYLQISSLKAEDTAVYYCAPSYYGGNDDAYWGQGTLVTVSS VL: DIVLTQSPASLAVSPGQRATITCRASESVDNYGISFMNWFQQKPGQPPKLLIYAASSQGSGVPARFSGSGSGTDFTLTINPMEANDTANYYCQQSKEFPWTFGGGTKVEIKR | 0.77 |
